This passage reports Kd results from PMC6200766, “Fisetin targets YB-1/RSK axis independent of its effect on ERK signaling: insights from in vitro and in vivo melanoma models” (Scientific Reports, 2018).

What all share (details): both partners purified
In experiment [1] the target is T1, RPS6KA3 (RSK2, 86.3 kDa) recombinant human protein, full length, HIS-tag (human, UniProt P51812 1-740).
T1 construct: p90 ribosomal S6 kinase 2 (RSK2, RPS6KA3), human, full length, 86.3 kDa; source: bought: Life Technologies, Italy
T1 sequence (P51812 whole entry): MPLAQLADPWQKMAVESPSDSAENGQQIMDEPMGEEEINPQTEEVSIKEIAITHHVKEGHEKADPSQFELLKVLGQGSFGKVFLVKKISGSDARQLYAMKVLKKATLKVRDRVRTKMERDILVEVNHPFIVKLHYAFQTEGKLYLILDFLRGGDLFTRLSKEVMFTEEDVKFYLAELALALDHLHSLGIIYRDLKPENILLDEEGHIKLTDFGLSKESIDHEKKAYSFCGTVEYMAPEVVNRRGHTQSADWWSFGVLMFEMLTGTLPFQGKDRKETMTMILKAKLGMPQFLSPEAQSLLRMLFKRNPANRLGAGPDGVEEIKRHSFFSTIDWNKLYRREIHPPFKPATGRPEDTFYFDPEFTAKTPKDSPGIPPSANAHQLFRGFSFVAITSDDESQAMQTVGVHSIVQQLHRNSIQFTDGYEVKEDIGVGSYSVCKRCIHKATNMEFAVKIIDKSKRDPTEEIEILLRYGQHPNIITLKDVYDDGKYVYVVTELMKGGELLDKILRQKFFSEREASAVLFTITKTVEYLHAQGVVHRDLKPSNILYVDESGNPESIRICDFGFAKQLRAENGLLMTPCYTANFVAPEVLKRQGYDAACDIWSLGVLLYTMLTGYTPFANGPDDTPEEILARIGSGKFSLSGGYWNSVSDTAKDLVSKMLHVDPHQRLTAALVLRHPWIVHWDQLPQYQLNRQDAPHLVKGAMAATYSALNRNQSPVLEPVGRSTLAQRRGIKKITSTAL
Put plainly: SPR; Biacore T-200, 25 °C; GST-YB-1 (51-139) amine-coupled on a CM5 chip; RSK2 flowed at 50, 25, 12.5, 6.25, 3.125, 0 nM, 30 ul/min; 10 mM HEPES pH 7.4, 150 mM NaCl, 3 mM EDTA, 0.05% P20, 0.1% BSA; full kinetics.

The target of experiment [2] is T2, RPS6KA1 (RSK1, 88.5 kDa) recombinant human protein, full length, HIS-tag (human, UniProt Q15418 1-735).
T2 construct: p90 ribosomal S6 kinase 1 (RSK1, RPS6KA1), human, full length, 88.5 kDa; source: bought: Life Technologies, Italy
T2 sequence (Q15418 whole entry): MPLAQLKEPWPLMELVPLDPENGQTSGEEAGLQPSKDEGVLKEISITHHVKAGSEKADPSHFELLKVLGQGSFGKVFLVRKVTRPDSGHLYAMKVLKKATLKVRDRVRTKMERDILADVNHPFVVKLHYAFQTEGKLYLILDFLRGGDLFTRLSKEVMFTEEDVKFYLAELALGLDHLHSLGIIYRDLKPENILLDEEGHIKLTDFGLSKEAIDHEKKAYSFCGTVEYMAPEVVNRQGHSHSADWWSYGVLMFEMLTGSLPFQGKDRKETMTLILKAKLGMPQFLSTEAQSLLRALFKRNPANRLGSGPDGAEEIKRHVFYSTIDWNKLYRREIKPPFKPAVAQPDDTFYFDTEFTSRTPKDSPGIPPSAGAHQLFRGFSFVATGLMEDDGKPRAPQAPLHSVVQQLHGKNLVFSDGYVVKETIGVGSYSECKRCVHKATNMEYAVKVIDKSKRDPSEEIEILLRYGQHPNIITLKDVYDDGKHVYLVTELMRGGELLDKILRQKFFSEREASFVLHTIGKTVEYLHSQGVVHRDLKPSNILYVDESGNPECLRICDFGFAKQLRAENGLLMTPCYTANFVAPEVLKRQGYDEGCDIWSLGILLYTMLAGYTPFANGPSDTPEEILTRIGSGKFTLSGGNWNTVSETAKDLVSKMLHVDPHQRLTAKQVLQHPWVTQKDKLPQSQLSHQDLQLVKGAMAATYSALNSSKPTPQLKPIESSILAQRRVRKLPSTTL
In words: SPR; Biacore T-200, 25 °C; GST-YB-1 (51-139), 60 RU, amine-coupled on a CM5 chip; RSK1 or RSK2 flowed at 100-0 nM without BSA, 30 ul/min; full kinetics; KD from ka and kd or steady state.

The target of experiment [3] is T1, RPS6KA3 (RSK2, 86.3 kDa) recombinant …. The experiment is described as above.

B1: YB-1 human recombinant protein with GST-tag at N-terminal (51-139 aa) (domain or fragment)
chain: not shown
notes: 35 kDa including GST tag; Immobilised by amine coupling (EDC/NHS) on a CM5 chip with its GST tag; source: bought: Abnova Corporation, Taiwan; not shown: GST, N-terminal, kept
As usually defined, the Kd is the concentration at which binding is half-saturated. On to B1, for which the Kd in experiment [1] is 402 nM; in experiment [2], 246000 nM; in experiment [3], 534 nM.
